Some targets named below: CARD14, Q9BXL6; TJP1_1, Q07157; DVL2, O14641; PARD3B_2, Q8TEW8; MAGI3_4, Q5TCQ9; RIMS1, Q86UR5; LIMK1, P53667; PREX1_1, Q8TCU6; MAGI3_3, Q5TCQ9; NHERF4_3, Q86UT5.
Holding throughout (test): holdup assay
Design in all cases: key: below the threshold = too weak to quantify, mostly under pKd 3.1 to 4

A further assay concerns the target T1, MPP5, Q8N3R9.
T1 sequence (Q8N3R9 251-346, limits assumed, looked up): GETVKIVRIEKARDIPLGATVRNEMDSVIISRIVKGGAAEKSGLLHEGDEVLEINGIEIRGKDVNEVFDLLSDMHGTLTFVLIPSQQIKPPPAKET

The next assay deals with T2, PDZD7_1, Q9H5P4.
T2 sequence (Q9H5P4 81-178, limits assumed, looked up): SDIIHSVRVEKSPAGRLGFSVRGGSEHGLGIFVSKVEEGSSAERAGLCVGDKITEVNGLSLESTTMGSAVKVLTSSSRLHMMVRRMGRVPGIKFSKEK

The next assay concerns the target T3, TJP3_1, O95049.
T3 sequence (O95049 6-103, limits assumed, looked up): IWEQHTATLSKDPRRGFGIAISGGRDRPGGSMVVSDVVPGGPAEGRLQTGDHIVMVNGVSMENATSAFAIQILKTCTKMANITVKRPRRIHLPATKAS

In the next assay the target is T4, MLLT4, P55196.
T4 sequence (P55196 1002-1103, limits assumed, looked up): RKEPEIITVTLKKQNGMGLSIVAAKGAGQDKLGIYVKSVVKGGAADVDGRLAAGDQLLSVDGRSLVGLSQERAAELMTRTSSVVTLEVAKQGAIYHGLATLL

Another assay has as its target T5, PDZD7_2, Q9H5P4.
T5 sequence (Q9H5P4 205-303, limits assumed, looked up): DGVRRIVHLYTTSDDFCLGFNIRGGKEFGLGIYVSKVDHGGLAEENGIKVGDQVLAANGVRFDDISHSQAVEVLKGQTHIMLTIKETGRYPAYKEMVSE

In another assay the target is T6, PARD6G, Q9BYG4.
T6 sequence (Q9BYG4 153-261, limits assumed, looked up): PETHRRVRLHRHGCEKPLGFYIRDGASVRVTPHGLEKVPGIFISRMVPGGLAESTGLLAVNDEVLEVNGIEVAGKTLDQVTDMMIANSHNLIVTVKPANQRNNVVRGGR

The target in the next assay is T7, PARD6B, Q9BYG5.
T7 sequence (Q9BYG5 152-260, limits assumed, looked up): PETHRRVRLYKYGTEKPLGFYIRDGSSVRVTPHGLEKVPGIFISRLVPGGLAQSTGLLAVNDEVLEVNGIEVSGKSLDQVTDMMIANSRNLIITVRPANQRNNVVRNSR

Another assay has as its target T8, SHANK2, Q9UPX8.
T8 sequence (Q9UPX8 621-730, limits assumed, looked up): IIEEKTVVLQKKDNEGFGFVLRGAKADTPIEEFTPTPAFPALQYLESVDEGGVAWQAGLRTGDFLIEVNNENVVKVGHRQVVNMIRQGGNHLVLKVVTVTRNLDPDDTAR

The next assay deals with T9, MPDZ_13, O75970.
T9 sequence (O75970 1982-2070, limits assumed, looked up): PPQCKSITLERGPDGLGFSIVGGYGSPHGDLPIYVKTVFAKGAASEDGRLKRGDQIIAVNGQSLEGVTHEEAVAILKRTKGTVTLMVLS

The next assay has as its target T10, MPDZ_6, O75970.
T10 sequence (O75970 1003-1099, limits assumed, looked up): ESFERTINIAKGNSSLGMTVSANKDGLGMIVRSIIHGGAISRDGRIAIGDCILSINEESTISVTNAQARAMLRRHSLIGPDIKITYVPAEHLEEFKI

In the next assay the target is T11, MPDZ_3, O75970.
T11 sequence (O75970 372-473, limits assumed, looked up): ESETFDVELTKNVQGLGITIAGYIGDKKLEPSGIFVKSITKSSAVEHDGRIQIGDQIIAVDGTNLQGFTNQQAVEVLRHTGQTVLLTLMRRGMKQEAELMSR

The next assay deals with T12, LNX2_4, Q8N448.
T12 sequence (Q8N448 595-690, limits assumed, looked up): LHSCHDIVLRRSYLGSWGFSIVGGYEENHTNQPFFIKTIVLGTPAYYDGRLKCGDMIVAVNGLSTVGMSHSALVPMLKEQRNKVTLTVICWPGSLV

[1] abbreviates: plain residues with an end cap or a label only (N-terminal biotin on a linker: none).
The mark [2] stands for this setting: plain residues with an end cap or a label only (N-terminal biotin on a linker: ttds).

Sequence of PARD3B_2, Q8TEW8 (Q8TEW8 376-471): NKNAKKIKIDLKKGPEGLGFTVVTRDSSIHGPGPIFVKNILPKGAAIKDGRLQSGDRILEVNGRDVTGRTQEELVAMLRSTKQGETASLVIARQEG
Sequence of CARD14, Q9BXL6 (Q9BXL6 558-663): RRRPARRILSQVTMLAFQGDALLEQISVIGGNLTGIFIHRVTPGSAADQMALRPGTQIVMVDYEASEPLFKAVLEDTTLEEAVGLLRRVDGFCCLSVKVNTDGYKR
Sequence of RIMS1, Q86UR5 (Q86UR5 584-692): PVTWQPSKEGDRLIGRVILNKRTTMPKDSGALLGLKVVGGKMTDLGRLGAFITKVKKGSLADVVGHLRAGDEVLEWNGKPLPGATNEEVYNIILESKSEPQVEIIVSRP
Sequence of NHERF4_3, Q86UT5 (Q86UT5 325-412): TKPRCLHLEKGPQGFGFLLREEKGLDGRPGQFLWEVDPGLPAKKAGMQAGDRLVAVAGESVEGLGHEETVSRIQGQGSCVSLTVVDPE
Sequence of DVL2, O14641 (O14641 260-359): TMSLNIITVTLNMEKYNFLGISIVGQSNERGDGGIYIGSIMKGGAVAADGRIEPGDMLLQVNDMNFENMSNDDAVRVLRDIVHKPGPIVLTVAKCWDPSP
Sequence of PREX1_1, Q8TCU6 (Q8TCU6 608-718): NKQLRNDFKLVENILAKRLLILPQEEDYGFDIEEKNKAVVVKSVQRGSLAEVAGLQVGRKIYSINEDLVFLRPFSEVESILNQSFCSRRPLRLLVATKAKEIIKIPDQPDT
Sequence of LIMK1, P53667 (P53667 155-268): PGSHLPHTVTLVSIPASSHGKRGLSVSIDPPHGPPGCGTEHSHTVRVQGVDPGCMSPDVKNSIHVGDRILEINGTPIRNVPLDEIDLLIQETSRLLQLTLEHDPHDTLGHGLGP
Sequence of MAGI3_3, Q5TCQ9 (Q5TCQ9 572-655): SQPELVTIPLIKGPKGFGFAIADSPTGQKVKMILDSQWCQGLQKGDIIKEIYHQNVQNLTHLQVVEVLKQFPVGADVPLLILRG
Sequence of TJP1_1, Q07157 (Q07157 18-120): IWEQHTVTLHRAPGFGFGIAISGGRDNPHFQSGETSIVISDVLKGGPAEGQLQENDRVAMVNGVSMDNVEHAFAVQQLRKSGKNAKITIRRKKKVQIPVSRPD
Sequence of MAGI3_4, Q5TCQ9 (Q5TCQ9 716-815): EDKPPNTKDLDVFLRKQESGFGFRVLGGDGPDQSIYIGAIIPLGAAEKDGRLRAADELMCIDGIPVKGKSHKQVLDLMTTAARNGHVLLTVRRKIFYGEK

Broadly, the pKd is the Kd on a negative log10 scale, so that one unit is a factor of ten. For NLNSSRVPDLLV [SARS-CoV2-E, P0DTC4], the pKd in the assay with MPP5, Q8N3R9 (setting [1]) is 4.01; with PDZD7_1, Q9H5P4 (setting [1]), “below the threshold”; in the assay with TJP3_1, O95049 (setting [1]) it was “below the threshold”; in the assay with MLLT4, P55196 (setting [1]), 4.1; with PDZD7_2, Q9H5P4 (setting [1]) it was “below the threshold”; with CARD14, Q9BXL6 (setting [1]) it was “below the threshold”. In addition, the pKd entry with TJP1_1, Q07157 (setting [1]) was “below the threshold”; with DVL2, O14641 (setting [1]), “below the threshold”; with PARD3B_2, Q8TEW8 (setting [1]), “below the threshold”; in the assay with MAGI3_4, Q5TCQ9 (setting [1]), “below the threshold”; in the assay with PARD6G, Q9BYG4 (setting [1]) it was “below the threshold”; with RIMS1, Q86UR5 (setting [1]), “below the threshold”. Moreover, the pKd entry is recorded as “below the threshold” with LIMK1, P53667 (setting [1]); “below the threshold” with PARD6B, Q9BYG5 (setting [1]); “below the threshold” with SHANK2, Q9UPX8 (setting [1]); “below the threshold” in the assay with MPDZ_13, O75970 (setting [1]); “below the threshold” with MPDZ_6, O75970 (setting [1]); “below the threshold” with MPDZ_3, O75970 (setting [1]). Moreover, the pKd result in the assay with LNX2_4, Q8N448 (setting [1]) is “below the threshold”; with PREX1_1, Q8TCU6 (setting [1]), “below the threshold”; with MAGI3_3, Q5TCQ9 (setting [1]), “below the threshold”; with NHERF4_3, Q86UT5 (setting [1]), “below the threshold”.

Consider SGSRPSATVV [HPV73-E6, Q82005], for which the pKd entry is “below the threshold” in the assay with MPP5, Q8N3R9 (setting [2]); “below the threshold” with PDZD7_1, Q9H5P4 (setting [2]); 4.21 with TJP3_1, O95049 (setting [2]); “below the threshold” with MLLT4, P55196 (setting [2]); “below the threshold” in the assay with PDZD7_2, Q9H5P4 (setting [2]); 4.12 with CARD14, Q9BXL6 (setting [2]). Besides, the pKd entry with TJP1_1, Q07157 (setting [2]) was “below the threshold”; with DVL2, O14641 (setting [2]), “below the threshold”; with PARD3B_2, Q8TEW8 (setting [2]), 4.24; with MAGI3_4, Q5TCQ9 (setting [2]) it was “below the threshold”; with PARD6G, Q9BYG4 (setting [2]) it was “below the threshold”; with RIMS1, Q86UR5 (setting [2]), “below the threshold”. The pKd result with LIMK1, P53667 (setting [2]) was “below the threshold”; with PARD6B, Q9BYG5 (setting [2]) it was “below the threshold”; with SHANK2, Q9UPX8 (setting [2]), “below the threshold”; in the assay with MPDZ_13, O75970 (setting [2]), “below the threshold”; with MPDZ_6, O75970 (setting [2]), “below the threshold”; with MPDZ_3, O75970 (setting [2]), “below the threshold”. Moreover, the pKd result in the assay with LNX2_4, Q8N448 (setting [2]) was “below the threshold”; with PREX1_1, Q8TCU6 (setting [2]) it was “below the threshold”; with MAGI3_3, Q5TCQ9 (setting [2]) it was “below the threshold”; in the assay with NHERF4_3, Q86UT5 (setting [2]), “below the threshold”.

SKPTRRETEV [HPV35-E6, P27228]: the pKd result in the assay with MPP5, Q8N3R9 (setting [2]) was “below the threshold”; in the assay with PDZD7_1, Q9H5P4 (setting [2]) it was “below the threshold”; with TJP3_1, O95049 (setting [2]) it was “below the threshold”; in the assay with MLLT4, P55196 (setting [2]), 3.79; in the assay with PDZD7_2, Q9H5P4 (setting [2]), “below the threshold”; with TJP1_1, Q07157 (setting [2]) it was “below the threshold”. Further, the pKd entry was “below the threshold” with DVL2, O14641 (setting [2]); “below the threshold” with PARD3B_2, Q8TEW8 (setting [2]); 3.76 with MAGI3_4, Q5TCQ9 (setting [2]); “below the threshold” with PARD6G, Q9BYG4 (setting [2]); “below the threshold” in the assay with RIMS1, Q86UR5 (setting [2]); “below the threshold” in the assay with PARD6B, Q9BYG5 (setting [2]). Also, the pKd entry is “below the threshold” with SHANK2, Q9UPX8 (setting [2]); 3.77 with MPDZ_13, O75970 (setting [2]); “below the threshold” with MPDZ_6, O75970 (setting [2]); “below the threshold” with MPDZ_3, O75970 (setting [2]); “below the threshold” with PREX1_1, Q8TCU6 (setting [2]); 3.78 with NHERF4_3, Q86UT5 (setting [2]).

Turning to RLQRRRETQV [HPV18-E6, P06463], the pKd result with MPP5, Q8N3R9 (setting [2]) is reported as “below the threshold”; with PDZD7_1, Q9H5P4 (setting [2]) it was “below the threshold”; with TJP3_1, O95049 (setting [2]) it was “below the threshold”; in the assay with MLLT4, P55196 (setting [2]) it was “below the threshold”; with PDZD7_2, Q9H5P4 (setting [2]) it was “below the threshold”; with CARD14, Q9BXL6 (setting [2]), “below the threshold”. For the same molecule, the pKd result with TJP1_1, Q07157 (setting [2]) is given as “below the threshold”; with DVL2, O14641 (setting [2]) it was “below the threshold”; with PARD3B_2, Q8TEW8 (setting [2]), “below the threshold”; with MAGI3_4, Q5TCQ9 (setting [2]), “below the threshold”; in the assay with PARD6G, Q9BYG4 (setting [2]), “below the threshold”; with RIMS1, Q86UR5 (setting [2]), “below the threshold”. The pKd result with LIMK1, P53667 (setting [2]) is reported as “below the threshold”; in the assay with PARD6B, Q9BYG5 (setting [2]), “below the threshold”; with SHANK2, Q9UPX8 (setting [2]), “below the threshold”; with MPDZ_13, O75970 (setting [2]), “below the threshold”; with MPDZ_6, O75970 (setting [2]), “below the threshold”; in the assay with MPDZ_3, O75970 (setting [2]), “below the threshold”. In addition, the pKd result with LNX2_4, Q8N448 (setting [2]) is “below the threshold”; in the assay with PREX1_1, Q8TCU6 (setting [2]), “below the threshold”; with MAGI3_3, Q5TCQ9 (setting [2]), “below the threshold”; in the assay with NHERF4_3, Q86UT5 (setting [2]), “below the threshold”.

Source of the values: publication PMC9482650, “Quantitative fragmentomics allow affinity mapping of interactomes” (Nature Communications, 2022).
